{"source": "patent US20050226876A1", "about": "(Hoffmann-La Roche, published 2005)"}
{"molecular_target": "T1, Recombinant P-selectin (R&D Systems) (human, UniProt P16109 42-771)", "T1 construct": "extracellular domain; also called recombinant human P-selectin; recombinant truncated form of P-selectin", "T1 sequence (looked up)": "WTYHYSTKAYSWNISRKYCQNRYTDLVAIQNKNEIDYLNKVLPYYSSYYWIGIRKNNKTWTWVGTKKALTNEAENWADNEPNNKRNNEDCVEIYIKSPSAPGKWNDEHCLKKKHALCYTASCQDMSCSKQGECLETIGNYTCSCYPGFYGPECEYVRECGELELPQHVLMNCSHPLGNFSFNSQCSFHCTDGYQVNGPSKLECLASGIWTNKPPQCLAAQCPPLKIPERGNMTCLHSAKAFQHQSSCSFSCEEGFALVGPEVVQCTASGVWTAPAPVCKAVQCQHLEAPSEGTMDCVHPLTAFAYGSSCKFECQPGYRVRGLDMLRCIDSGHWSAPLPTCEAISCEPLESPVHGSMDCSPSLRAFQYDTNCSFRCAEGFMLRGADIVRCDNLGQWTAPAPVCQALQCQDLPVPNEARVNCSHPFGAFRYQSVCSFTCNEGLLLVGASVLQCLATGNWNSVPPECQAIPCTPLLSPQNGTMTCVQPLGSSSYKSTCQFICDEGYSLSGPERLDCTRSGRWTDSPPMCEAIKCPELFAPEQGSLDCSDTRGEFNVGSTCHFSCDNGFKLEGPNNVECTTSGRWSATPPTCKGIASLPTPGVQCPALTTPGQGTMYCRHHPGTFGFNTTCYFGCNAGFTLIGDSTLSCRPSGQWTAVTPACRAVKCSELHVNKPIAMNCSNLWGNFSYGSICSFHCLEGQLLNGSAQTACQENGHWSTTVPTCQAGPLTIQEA", "assay": "SPR, BIACORE 2000; antibody captured by anti-human Fcγ, recombinant P-selectin 0-50 nM injected; 1:1 Langmuir fit", "method": "Recombinant P-selectin (R&D Systems) was added in various concentrations between 0-50 nM. Association was measured by P-selectin-injection for 120 seconds; dissociation was measured by washing the chip surface with buffer for 180 seconds. Using Biaevaluation Software the kinetic data were fitted to a 1:1 Langmuir binding model of P-selectin to the presented monoclonal antibody.", "units": {"Ka": "M⁻¹", "Kd": "nM", "koff": "s⁻¹", "kon": "M⁻¹ s⁻¹"}}
{"binder": "HuMab 001 (antibody of cell line hu-Mab<P-selectin>LC 1004-001, DSM ACC2640) (antibody, V domains shown, Human monoclonal antibody from transgenic mice; kappa light and gamma1 heavy chains by the cloning section; also called antibody 001; HuMab 1004-001) VH: EVQLVESGGGLVQPGGSLRLSCAASGFTFSSYDMHWVRQATGKGLEWVSGITTAGDTYYPGSVKGRFTISRENAKNSLYLQMNSLRAGDTAVYYCARGRISMDRGVKNNWFDPWGQGTLVTVSS VL: EIVLTQSPATLSLSPGERATLSCRASQSVSSYLAWYQQKPGQAPRLLIYDASNRATGIPARFSGSGSGTDFTLTISSLEPEDFAVYYCQQRNNWPLTFGGGTKVEIK", "Ka": "1.45e+09", "Kd": 0.689, "koff": 0.000419, "kon": 608000}
{"binder": "HuMab 003 (antibody, V domains shown, Human monoclonal antibody; also called antibody 003; LC 1004-003) VH: QVQLVESGGGVVQPGRSLRLSCAASGFTFSSYGMHWVRQAPGEGLEWVAVIWYDGTFKYYADSVKGRFTISRDNSKNTLSLLMNSLRAEDTAVYYCTRGGYYGSGSSFDYYYYGMDVWGQGTTVTVSS VL: DIQMTQSPSSLSASVGDRVTITCRASQGISSWLAWYQQKPEKAPKSLIYAASSLQSGVPSRFSGSGSGTDFTLTISSLQPEDFATYYCQQYHSYPLTFGGGTKVEIK", "Ka": "2.27e+09", "Kd": 0.441, "koff": 0.000291, "kon": 660000}
{"binder": "HuMab 005 (antibody, V domains shown, Human monoclonal antibody; also called antibody 005) VH: QVQLVESGGGVVQPGRSLRLSCAASGFTFSSYGMHWVRQAPGEGLEWVAVIWYDGTFKYYADSVKGRFTISRDNSKNTLSLLMNSLRAEDTAVYYCTRGGYYGSGSSFDYYYYGMDVWGQGTTVTVSS VL: EIVLTQSPATLSLSPGERATLSCRASQSVSSYLAWYQQKPGQAPRLLIYDASNRATGIPARFSGSGSGTDFTLTISSLEPEDFAVYYCQQRSNWPPVTFGQGTRLEIK", "Ka": "2.91e+09", "Kd": 0.343, "koff": 0.000289, "kon": 842000}
{"binder": "HuMab 017 (antibody of cell line hu-Mab<P-selectin>LC 1004-017, DSM ACC2642) (antibody, V domains shown, Human monoclonal antibody; also called antibody 017) VH: QPQLVQSGAEVKKPGASVKVSCKVSGNTLTELSMHWVRQAPGKGLEWMGGFDPENGEAIYAQKFQGRVTMTADTSTDTAYMDLSSLRSEDTAVYYCATDLAGGSDFYYYGLDVWGQGTTVTVSS VL: AIQLTQSPSSLSASVGDRVTITCRASQGISSALAWYQQKPGKAPKLLIYDASSLESGVPSRFSGSGSGTDFTLTISSLQPEDFATYYCQQFNSYPYTFGQGTKLEIK", "Ka": "5.59e+10", "Kd": 0.0179, "koff": "1.39e-05", "kon": 779000}
